Results as given in US20110217237A1 (AbbVie / Abbott, published 2011).
Where two headings read alike, the source gives them in different places.

Assays:
[1] = target: T1, human DLL4 extracellular domain (human, UniProt Q9NR61 27-529); experiment: SPR (Biacore)
T1 construct: purified recombinant ECD; biotin-labelled or 6xHis-tagged depending on the assay; also called huDLL4 ECD; hu DLL4 ECD
Protocol: (§1) The BIACORE® surface plasmon resonance assay (Biacore, Inc., Piscataway, N.J., US) determines the affinity of antibodies with kinetic measurements of on-rate and off-rate constants. Binding of DLL4 antibodies to a purified recombinant DLL4 extracellular domain (ECD) was determined by surface plasmon resonance-based measurements with a Biacore® instrument (either a Biacore 2000, Biacore 3000, or Biacore T100; GE Healthcare, Piscataway, N.J., US) using running buffer HBS-EPB (10 mM HEPES [pH 7.4], 150 mM NaCl, 3 mM EDTA, 0.1 mg/ml BSA and 0.005% surfactant P20) at 25° C. For example, approximately 9000 RU of goat anti-human Fc specific polyclonal antibody (Thermo Fisher Scientific Inc., Rockford, Ill., US) diluted in 10 mM sodium acetate (pH 4.5) is directly immobilized across a CMS research grade biosensor chip using a standard amine coupling kit according to manufacturer's instructions and procedures at 25 μg/ml. Unreacted moieties on the biosensor surface were blocked with ethanolamine. For kinetic analysis, rate equations derived from the 1:1 Langmuir binding model were fitted simultaneously to multiple antigen injections (using global fit analysis) with the use of Scrubber 2 (BioLogic Software), Biacore Biaevaluation 4.0.1 software or Biacore T100 Evaluation software. Purified antibodies were diluted in running buffer for capture across goat anti-human Fc reaction surfaces. Antibodies to be captured as a ligand (1 μg/ml) were injected over reaction matrices at a flow rate of 10 μl/min. During the assay, all measurements were referenced against the capture surface alone (i.e., with no captured anti-DLL4 antibody). […] The equilibrium dissociation constant KD (M) of the reaction between antibodies and the target antigen was then calculated from the kinetic rate constants by the following formula: KD=Koff/Kₒₙ. Binding was recorded as a function of time and kinetic rate constants were calculated.

[2] = target: T2, cynomolgus monkey DLL4 extracellular domain (cynomolgus monkey); experiment: SPR (Biacore)
T2 construct: extracellular domain; also called cynoDLL4 ECD; Cyno DLL4
Protocol: as §1

[3] = target: T3, human DLL4, full length, on cells (human, UniProt Q9NR61 27-685); experiment: competition FACS: huNotch-1-biotin to DLL4 cells
T3 construct: also called huDLL4 cells; human DLL4-293G
T3 sequence (Q9NR61 27-685 limits assumed): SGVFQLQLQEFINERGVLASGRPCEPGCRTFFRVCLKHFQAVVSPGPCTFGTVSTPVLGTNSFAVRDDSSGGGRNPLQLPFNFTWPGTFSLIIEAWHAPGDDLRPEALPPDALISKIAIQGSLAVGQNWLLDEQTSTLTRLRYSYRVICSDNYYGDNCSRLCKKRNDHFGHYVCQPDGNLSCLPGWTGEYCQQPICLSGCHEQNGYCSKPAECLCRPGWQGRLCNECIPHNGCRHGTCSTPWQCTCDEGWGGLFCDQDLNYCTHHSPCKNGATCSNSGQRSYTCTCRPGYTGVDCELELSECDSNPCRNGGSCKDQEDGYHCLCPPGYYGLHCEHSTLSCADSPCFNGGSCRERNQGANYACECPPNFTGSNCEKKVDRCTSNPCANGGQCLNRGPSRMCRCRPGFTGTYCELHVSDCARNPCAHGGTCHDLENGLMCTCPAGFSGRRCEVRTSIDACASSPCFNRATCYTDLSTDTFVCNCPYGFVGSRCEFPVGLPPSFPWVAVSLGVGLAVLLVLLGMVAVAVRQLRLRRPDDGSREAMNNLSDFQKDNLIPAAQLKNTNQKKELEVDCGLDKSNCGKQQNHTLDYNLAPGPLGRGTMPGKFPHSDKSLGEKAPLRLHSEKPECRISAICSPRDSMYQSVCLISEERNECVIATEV
Protocol: (§2) Notch blocking assay: Briefly, stable cell lines overexpressing cell-surface DLL4 were harvested from tissue culture flasks and re-suspended in phosphate buffered saline (PBS) containing 1% bovine serum albumin and 1 mM CaCl₂ (FACS buffer). HEK293G-DLL4 cells were dispensed into 96-well plate (v-bottom) at 1.5×10⁵ cells/well in FACS buffer. After spinning down cells and discarding the supernatant, 50 μL of purified IgG with appropriate dilution were added to each well, and incubated on ice at 4° C. for 60 minutes, followed by addition of 50 μL/well of Notch1-biotin at 0.2 μg/mL for human DLL4-293G or 2.0 μg/mL for mouse DLL4-293G (1.0 or 0.1 μg/mL final) for an additional 1 hour incubation ice at 4° C. After washing the cells two times with FACS buffer, 50 μL of R-phycoerythrin-conjugated streptavidin (1:150 dilution in FACS buffer) (Jackson ImmunoResearch, West Grove, Pa., Cat.#016-110-084) were added. Following an incubation on ice (4° C., 60 minutes), cells were washed three times and resuspended in FACS buffer. Fluorescence was measured using a Becton Dickinson FACSCalibur-HTS (Becton Dickinson, San Jose, Calif.). Data were analyzed using Graphpad Prism software, and IC₅₀ values were reported as the concentration of antibody to achieve 50% reduction of Notch1 bound to DLL4 expressing cells. […]

mouse DLL4 on cells [4] = target: T4, mouse DLL4 on cells (mouse, UniProt Q9JI71 27-686); experiment: competition FACS: huNotch-1-biotin to DLL4 cells
T4 construct: whole, on cells; also called mouse DLL4-293G; mu DLL4 cells
T4 sequence (Q9JI71 27-686): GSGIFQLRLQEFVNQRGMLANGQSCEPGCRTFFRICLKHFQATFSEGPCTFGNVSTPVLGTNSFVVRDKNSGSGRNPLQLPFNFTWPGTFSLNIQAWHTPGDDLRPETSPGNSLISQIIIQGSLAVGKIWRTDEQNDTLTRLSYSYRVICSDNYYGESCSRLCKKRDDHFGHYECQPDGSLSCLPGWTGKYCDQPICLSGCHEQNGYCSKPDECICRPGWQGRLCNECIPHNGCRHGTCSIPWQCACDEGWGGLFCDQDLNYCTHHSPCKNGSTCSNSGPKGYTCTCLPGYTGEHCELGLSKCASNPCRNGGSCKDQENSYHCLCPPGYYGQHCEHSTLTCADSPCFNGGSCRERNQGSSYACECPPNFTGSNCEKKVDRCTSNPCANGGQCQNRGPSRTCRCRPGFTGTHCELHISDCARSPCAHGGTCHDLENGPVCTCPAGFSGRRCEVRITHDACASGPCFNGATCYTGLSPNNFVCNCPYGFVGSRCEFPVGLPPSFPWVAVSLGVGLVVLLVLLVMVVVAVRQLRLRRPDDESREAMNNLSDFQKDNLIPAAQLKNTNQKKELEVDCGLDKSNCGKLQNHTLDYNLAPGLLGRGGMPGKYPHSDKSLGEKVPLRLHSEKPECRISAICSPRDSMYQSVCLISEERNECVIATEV
Protocol: as §2

[5] = target: T3, human DLL4, full length, on cells; experiment: cell-based or functional assay
[6] = target: T3, human DLL4, full length, on cells; experiment: FACS, DLL4 cells
Protocol: (§3) Stable cell lines overexpressing cell-surface DLL4 were harvested from tissue culture flasks, washed four times and resuspended in phosphate buffered saline (PBS) containing 1% bovine serum albumin and 1 mM CaCl₂ (FACS buffer). 1.5×10⁵ cells were incubated with antibodies at various concentrations in FACS buffer for 60 minutes on ice. […] Following an incubation on ice (4° C., 60 minutes), cells were washed three times and resuspended in FACS buffer. Fluorescence was measured using a Becton Dickinson FACSCalibur-HTS (Becton Dickinson, San Jose, Calif., US). Data were analyzed using Graphpad Prism software and EC₅₀ values were reported as the concentration of antibody to achieve 50% of maximal DLL4 antibodies binding to DLL4 expressing cells. […]

mouse DLL4 on cells [7] = target: T4, mouse DLL4 on cells; experiment: FACS, DLL4 cells
Protocol: as §3

[8] = target: T5, rat DLL4 extracellular domain (rat, UniProt D3ZHH1 28-530); experiment: SPR (Biacore)
T5 construct: extracellular domain; also called ratDLL4 ECD
T5 sequence (D3ZHH1 28-530): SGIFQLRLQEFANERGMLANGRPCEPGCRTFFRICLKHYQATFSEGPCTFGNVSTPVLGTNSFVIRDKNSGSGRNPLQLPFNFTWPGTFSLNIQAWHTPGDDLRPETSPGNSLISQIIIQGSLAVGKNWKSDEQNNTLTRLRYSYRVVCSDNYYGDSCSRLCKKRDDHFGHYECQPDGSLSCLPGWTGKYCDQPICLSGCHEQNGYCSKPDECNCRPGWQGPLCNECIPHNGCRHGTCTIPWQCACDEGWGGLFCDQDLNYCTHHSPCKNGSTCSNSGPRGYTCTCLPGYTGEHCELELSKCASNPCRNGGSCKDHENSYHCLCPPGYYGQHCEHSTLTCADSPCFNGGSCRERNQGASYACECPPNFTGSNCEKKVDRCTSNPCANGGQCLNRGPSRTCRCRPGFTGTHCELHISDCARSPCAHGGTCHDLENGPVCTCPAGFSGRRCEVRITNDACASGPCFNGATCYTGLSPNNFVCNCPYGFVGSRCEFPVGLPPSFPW
Method in brief: (§4)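 Purified anti-DLL4 antibodies (1 μg/ml) captured on immobilized goat anti-human Fc, with DLL4 ECD injected as analyte; HBS-EPB running buffer (pH 7.4), 25° C, referenced against capture-only surface. On/off rates from global 1:1 Langmuir fit; KD = Koff/Kon.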

[9] = target: T6, mouse DLL4 extracellular domain (mouse, UniProt Q9JI71 27-532); experiment: SPR (Biacore)
T6 construct: extracellular domain; also called muDLL4 ECD; murine DLL4
T6 sequence (Q9JI71 27-532): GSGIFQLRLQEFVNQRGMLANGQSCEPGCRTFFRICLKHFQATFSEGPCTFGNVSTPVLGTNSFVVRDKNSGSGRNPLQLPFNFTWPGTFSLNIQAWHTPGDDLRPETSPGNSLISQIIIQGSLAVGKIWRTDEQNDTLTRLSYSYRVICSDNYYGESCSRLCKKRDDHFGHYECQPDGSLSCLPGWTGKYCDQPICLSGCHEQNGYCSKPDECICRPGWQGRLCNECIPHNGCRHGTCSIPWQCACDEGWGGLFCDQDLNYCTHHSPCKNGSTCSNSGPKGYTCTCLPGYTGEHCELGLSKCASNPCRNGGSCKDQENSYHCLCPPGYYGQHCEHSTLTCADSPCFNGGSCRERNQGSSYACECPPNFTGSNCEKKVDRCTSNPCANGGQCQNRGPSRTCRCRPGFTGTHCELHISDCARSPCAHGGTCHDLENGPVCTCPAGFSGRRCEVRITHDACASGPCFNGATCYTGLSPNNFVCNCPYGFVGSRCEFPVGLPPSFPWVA
Method in brief: as §4

[10] = target: T3, human DLL4, full length, on cells; experiment: competition FACS: huNotch-1 to DLL4 cells
Protocol: (§5) Notch blocking assay: Briefly, stable cell lines overexpressing cell-surface DLL4 were harvested from tissue culture flasks and re-suspended in phosphate buffered saline (PBS) containing 1% bovine serum albumin and 1 mM CaCl₂ (FACS buffer). HEK293G-DLL4 cells were dispensed into 96-well plate (v-bottom) at 1.5×10⁵ cells/well in FACS buffer. After spinning down cells and discarding the supernatant, 50 μL of purified IgG with appropriate dilution were added to each well, and incubated on ice at 4° C. for 60 minutes, followed by addition of 50 μL/well of Notch1-biotin at 0.2 μg/mL for human DLL4-293G or 2.0 μg/mL for mouse DLL4-293G (1.0 or 0.1 μg/mL final) for an additional 1 hour incubation ice at 4° C. After washing the cells two times with FACS buffer, 50 μL of R-phycoerythrin-conjugated streptavidin (1:150 dilution in FACS buffer) (Jackson ImmunoResearch, West Grove, Pa., Cat.#016-110-084) were added. Following an incubation on ice (4° C., 60 minutes), cells were washed three times and resuspended in FACS buffer. Fluorescence was measured using a Becton Dickinson FACSCalibur-HTS (Becton Dickinson, San Jose, Calif.). Data were analyzed using Graphpad Prism software, and IC₅₀ values were reported as the concentration of antibody to achieve 50% reduction of Notch1 bound to DLL4 expressing cells.

mouse DLL4 on cells [11] = target: T4, mouse DLL4 on cells; experiment: competition FACS: huNotch-1 to DLL4 cells
Protocol: as §5

[12] = target: T3, human DLL4, full length, on cells; experiment: FACS, DLL4 cells; remark: listed apart in the source
mouse DLL4 on cells [13] = target: T4, mouse DLL4 on cells; experiment: FACS, DLL4 cells; remark: listed apart in the source
[14] = target: T1, human DLL4 extracellular domain; experiment: binding ELISA, DLL4 ECD
[15] = target: T6, mouse DLL4 extracellular domain; experiment: binding ELISA, DLL4 ECD

T1 sequence (Q9NR61 27-529 limits assumed): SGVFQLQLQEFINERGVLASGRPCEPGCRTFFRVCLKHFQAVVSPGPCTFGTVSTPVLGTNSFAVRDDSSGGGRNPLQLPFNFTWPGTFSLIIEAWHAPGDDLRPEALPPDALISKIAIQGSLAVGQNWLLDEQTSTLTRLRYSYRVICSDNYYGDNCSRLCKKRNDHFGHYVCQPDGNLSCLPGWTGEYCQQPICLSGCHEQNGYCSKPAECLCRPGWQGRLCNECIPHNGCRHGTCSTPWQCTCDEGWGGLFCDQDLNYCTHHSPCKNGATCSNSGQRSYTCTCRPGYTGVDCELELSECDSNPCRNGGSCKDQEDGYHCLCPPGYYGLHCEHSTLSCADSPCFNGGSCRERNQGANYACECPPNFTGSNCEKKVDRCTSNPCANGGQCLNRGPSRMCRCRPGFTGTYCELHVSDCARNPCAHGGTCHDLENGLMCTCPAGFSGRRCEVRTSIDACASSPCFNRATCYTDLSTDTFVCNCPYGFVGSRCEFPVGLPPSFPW

Binder	Kd [1] [nM]	koff [1] [s⁻¹]	kon [1] [M⁻¹ s⁻¹]	Kd [2] [nM]	koff [2] [s⁻¹]	kon [2] [M⁻¹ s⁻¹]	IC50 [3] [nM]	Notch activation Inhibition (IC50, nM), huDLL4 cell/Notch reporter cells [5] [nM]	EC50 [6] [nM]	EC50 (mouse DLL4 on cells [7]) [nM]	binding result [8]	Kd [9] [nM]	koff [9] [s⁻¹]	kon [9] [M⁻¹ s⁻¹]	IC50 [10] [nM]	IC50 (mouse DLL4 on cells [11]) [nM]	EC50 [12] [nM]	EC50 (mouse DLL4 on cells [13]) [nM]	also measured
14A11 chimeric antibody (antibody, human IgG1, V domains shown, also called Chimera of 14A11) VH: EVQLQQSGPELAKPGSSVKISCKASGYTFTNSYISWIKQTTGQGLEYVGYINTGSGGADYNEKFKGKATLTVDKSSRTAFMQLSSLTPGDSAVYYCAKSILLGSTCYFDYWGQGVLVTVSS VL: NTVLTQSPALAVSLGQRVTISCKASRSVSSPMYSYIYWYQQKPGQQPKLLIYRASTLASGVPARFSGSGSGTDFTLNIDPVEADDIATYFCQQSWSDPFTFGSGTKLEIKR															4.03	1.39	1.61	2.14	
15D6 chimeric antibody (antibody, human IgG1, V domains shown, also called Chimera of 15D6) VH: EVQLQQSGPELAKPGSSVKISCKASGYTFTSSYISWIKQTTGQGLEYIGYINTGSGGTDYNEKFKDKATLTVDKSSRTVFMQLSSLTPGDSAVYYCAKSILLGSTYYLDYWGQGVMVTVSS VL: DTVLTQSPALAVSLGQRVTISCKASRSLSSPMYSYIYWYQQKLGQQPRLLIYRASTLASGVPARFSGSGSGTDFTLNIDPVEADDIATYFCQQSWSDPFTFGSGTKLEIKR															10.5	1.49	1.72	1.82	
14G1 rat anti-DLL4 monoclonal antibody (antibody, rat IgG2a, V domains shown, rat IgG2a/K hybridoma mAb; also called MC13-14G1.1B4) VH: EVQLQQSGAELAKPGSSVKISCKASGYTFTNYDISWIKQTNGQGLEYLGYINTGSGGIYSNEKFKGKATLTVDKSSNTAFMQLSSLTPEDTAVYYCVREGNNFDHWGQGVKVTVSS VL: DTVMTQSPASMSTSVGERVTVNCKASQSVGTIVAWFQQKPGQSPKRLIYLATYRHTGVPDRFIGSGFGRDFTLTISNVEAEDLAVYYCLQYGSRPFTFGAGTKLEIKR	7.2	0.00039	54000	10.5	0.00041	39000	4.2	6.1	8.6	> 50	no binding								binding result [9]: no binding

Further lines, with some results ahead:

Kd [1] [nM]	koff [1] [s⁻¹]	kon [1] [M⁻¹ s⁻¹]	Kd [2] [nM]	koff [2] [s⁻¹]	kon [2] [M⁻¹ s⁻¹]	IC50 [3] [nM]	Notch activation Inhibition (IC50, nM), huDLL4 cell/Notch reporter cells [5] [nM]	EC50 [6] [nM]	EC50 (mouse DLL4 on cells [7]) [nM]	binding result [8]	Kd [9] [nM]	koff [9] [s⁻¹]	kon [9] [M⁻¹ s⁻¹]	IC50 [10] [nM]	IC50 (mouse DLL4 on cells [11]) [nM]	EC50 [12] [nM]	EC50 (mouse DLL4 on cells [13]) [nM]	Binder	also measured
9.2	0.001	110000	14.9	0.00083	56000	25	3.2	15	1.6	no binding	0.7	5.1e-05	74000					15D6 rat anti-DLL4 monoclonal antibody (antibody, rat IgG2a, V domains shown, rat IgG2a/K hybridoma mAb; also called MC13-15D6.1G7) VH: EVQLQQSGPELAKPGSSVKISCKASGYTFTSSYISWIKQTTGQGLEYIGYINTGSGGTDYNEKFKDKATLTVDKSSRTVFMQLSSLTPGDSAVYYCAKSILLGSTYYLDYWGQGVMVTVSS VL: DTVLTQSPALAVSLGQRVTISCKASRSLSSPMYSYIYWYQQKLGQQPRLLIYRASTLASGVPARFSGSGSGTDFTLNIDPVEADDIATYFCQQSWSDPFTFGSGTKLEIKR	IC50 (mouse DLL4 on cells [4]): 1.5 nM
														5.95	4.39	2.32	0.99	37D10 chimeric antibody (antibody, human IgG1, V domains shown, also called Chimera of 37D10) VH: AVQLVESGGGLVQPKESLKISCAASGFTFSNAAMYWVRLAPGKGLEWVARIRTKPNNYATYYAESVKGRFTISRDDSKSMVYVQMDNLKTEDTAMYYCTAAPWRDSYAHVYWGQGVMVTVSS VL: DIQMTQSPPVLSASVGDRVTLSCKASQNIHKNLDWYQQKHGDAPKLLIYYTDHLQTGVPSRFSGSGSATDYTLTISSLQPEDVATYYCYQYNGGPFTFGSGTKLEIKR	
0.03	7e-06	280000	0.03	6.3e-06	220000			3.1	0.8		88	0.0041	48000					32C7 rat anti-DLL4 monoclonal antibody (antibody, rat IgG2a, V domains shown, rat IgG2a/k hybridoma mAb; also called MC10-32C7.5A4) VH: EVQLVESGGGLVQPGRSLKLSCLASGFPFSSVWMTWIRQAPGKGLEWIATITNSGASTYYSASVKGRFTISRDNVKSTLYLQMTSLGSEDTATYYCTRVGTSFDYWGQGVMVTVSS VL: DIQMTQSPASLSASLGETVTIECRASDDIYNGLAWFQQKPGKSPQLLIYDANTLHTGVPSRFSGSGSGTQFSLKINSLQSEDVASYFCQQFYDYPPYTFGAGTKLELKR	EC50 [14]: 0.08 nM; EC50 [15]: 0.15 nM
